Results on three molecules are retold here after article PMC4520616, “Biochemical Characterization of the Split Class II Ribonucleotide Reductase from Pseudomonas aeruginosa” (PLoS ONE, 2015).

To fix the notation:
B2: NrdJa subunit of the split class II ribonucleotide reductase from Pseudomonas aeruginosa (enzyme, UniProt Q9HT76 1-734, looked up)
chain: MLRTVAGFGRPNNHREVNQRMAKTDARSPRTERGTIALQDASQDIWDKKYRLKSKDGTPVDASVDGTWQRVARALADVEDKASREHWYGRFLWALRNGAIPAGRIISNAGALGHKPATSTINCTVSGTIQDSMDNILEKVHEAGLTLKAGCGIGYEFSTLRPRGAYVSGAGAYTSGPLSFMDIYDKMCFTVSSAGGRRGAQMGTFDVSHPDVREFIRAKREDGRLRQFNLSLLITDQFMQAVEQDADWPLVFPVHVKERDEIDLDDPNAVVWREWPIQDDYVQRADGLVACKVYGQVRARHLWDMIMVSTYDYAEPGFILIDRVNELNNNWWCEAIRATNPCGEQPLPPYGSCLLGSVNLTCFVEQPFGDEARFDWDRFREVVRVFTRMLDNVVEINGLPLEQQRQEILGKRRHGMGFLGLGSTLTLLKLRYGSPEACVFTEEVAREMALVGWEVALELAREKGPAPILAQDYEVTAEMLRKRPEMAADGYKAGDRIRGSVLHAKYSRYMQRVAEHAPELIEALAETGARFTHHSSIAPTGTISLSLANNASNGIEPSFAHHYSRNLIREGRKTKEKVEVYSYELLAYRTLVNAQALPDSDDPARRLPDYFITADSVTPAQHMDIQAAAQKWVDSSISKTANVPTDYPFEDFKDIYRYAWHQGLKGCTTFRFNPEAFQGVLVKESDLEKTRYRFELEDGSVVEFKGNEQVEYDGEIHTAANLFDALKEGYYGKY
modifications: biotin linker (0.15 biotin linker/NrdJa monomer) only where NrdJa was immobilised on the streptavidin chip for SPR
notes: NrdJa, large subunit of the split class II ribonucleotide reductase (NrdJ) of Pseudomonas aeruginosa; 734 residues in PA; the nrdJa open reading frame was cloned into pET22; Monomer or dimer according to the allosteric effector (GEMMA); also called PA NrdJa

Substrate in data set [1]: Nc1ccn([C@@H]2O[C@H](COP(=O)(O)OP(=O)(O)OP(=O)(O)O)[C@@H](O)[C@H]2O)c(=O)n1
Description: 3H-CTP reduction assay, Michaelis-Menten fit. The format is biochemical, Pseudomonas aeruginosa. The note with it: 1 mM ATP, 100 μM AdoCbl, 30 mM DTT, 10 mM MgCl2, pH 7.5, labelled compound.

Data set [2] deals with the molecule itself. Put plainly: gas phase electrophoretic macromolecule analysis (GEMMA); 0.02 mg/ml NrdJa in 40 mM ammonium acetate pH 7.8, 0.005% Tween-20, 2 mM DTT; with 50 uM dTTP and 1:1 Mg2+.
Data set [3] addresses B2. Put plainly: cell-based or functional assay.
Data set [4] has as its target B2. Put plainly: SPR; biotinylated NrdJb immobilised on streptavidin chip, 0-2 uM NrdJa injected; 30 mM Tris-HCl pH 7.0, 10 mM MgCl2, 0.025% P20, 2 mM DTT; with 0.5 mM dATP; steady state fit; apparent Kd. Conditions: both partners purified. (In general: SPR reads the build-up and loss of mass on a sensor chip optically.)
Data set [5] addresses B2. Description: SPR; biotinylated NrdJb immobilised on streptavidin chip, 0-2 uM NrdJa injected; 30 mM Tris-HCl pH 7.0, 10 mM MgCl2, 0.025% P20, 2 mM DTT; with 40 uM AdoCbl; steady state fit; apparent Kd. The note with it: both partners purified.
Data set [6] has as its target B2. Description: SPR; biotinylated NrdJb immobilised on streptavidin chip, 0-2 uM NrdJa injected at 30 ul/min; 30 mM Tris-HCl pH 7.0, 10 mM MgCl2, 0.025% P20, 2 mM DTT; no additive; steady state fit; apparent Kd. The note with it: both partners purified.
Data set [7] has as its target B2. Put plainly: SPR; biotinylated NrdJb immobilised on streptavidin chip, 0-2 uM NrdJa injected; 30 mM Tris-HCl pH 7.0, 10 mM MgCl2, 0.025% P20, 2 mM DTT; with 0.5 mM dATP + 0.5 mM CTP + 40 uM AdoCbl; steady state fit; apparent Kd. Conditions: both partners purified.
For data set [8], the target named is B2. Description: SPR; biotinylated NrdJb immobilised on streptavidin chip, 0-2 uM NrdJa injected; 30 mM Tris-HCl pH 7.0, 10 mM MgCl2, 0.025% P20, 2 mM DTT; with 0.5 mM CTP + 40 uM AdoCbl; steady state fit; apparent Kd. Conditions: both partners purified.
Data set [9] addresses B2. Description: SPR; biotinylated NrdJb immobilised on streptavidin chip, 0-2 uM NrdJa injected; 30 mM Tris-HCl pH 7.0, 10 mM MgCl2, 0.025% P20, 2 mM DTT; with 0.5 mM CTP; steady state fit; apparent Kd. The note with it: both partners purified.

B1: NrdJa-NrdJb (split class II ribonucleotide reductase, PA NrdJ) (Pseudomonas aeruginosa PAO1) (protein)
chain: MLRTVAGFGRPNNHREVNQRMAKTDARSPRTERGTIALQDASQDIWDKKYRLKSKDGTPVDASVDGTWQRVARALADVEDKASREHWYGRFLWALRNGAIPAGRIISNAGALGHKPATSTINCTVSGTIQDSMDNILEKVHEAGLTLKAGCGIGYEFSTLRPRGAYVSGAGAYTSGPLSFMDIYDKMCFTVSSAGGRRGAQMGTFDVSHPDVREFIRAKREDGRLRQFNLSLLITDQFMQAVEQDADWPLVFPVHVKERDEIDLDDPNAVVWREWPIQDDYVQRADGLVACKVYGQVRARHLWDMIMVSTYDYAEPGFILIDRVNELNNNWWCEAIRATNPCGEQPLPPYGSCLLGSVNLTCFVEQPFGDEARFDWDRFREVVRVFTRMLDNVVEINGLPLEQQRQEILGKRRHGMGFLGLGSTLTLLKLRYGSPEACVFTEEVAREMALVGWEVALELAREKGPAPILAQDYEVTAEMLRKRPEMAADGYKAGDRIRGSVLHAKYSRYMQRVAEHAPELIEALAETGARFTHHSSIAPTGTISLSLANNASNGIEPSFAHHYSRNLIREGRKTKEKVEVYSYELLAYRTLVNAQALPDSDDPARRLPDYFITADSVTPAQHMDIQAAAQKWVDSSISKTANVPTDYPFEDFKDIYRYAWHQGLKGCTTFRFNPEAFQGVLVKESDLEKTRYRFELEDGSVVEFKGNEQVEYDGEIHTAANLFDALKEGYYGKY
notes: E. coli BL21(DE3); NrdJa untagged in pET22, 734 residues; NrdJb 229 residues, codon-optimised, 6xHis in pET21 (C-terminal in results, N-terminal in methods); proposed (NrdJa-NrdJb)2; with Class II (cobalamin-dependent) ribonucleotide-diphosphate reductase subunit, NrdJb
Turning to B1, the Km in data set [1] was 220 ± 60 µM.

Take B2: the “stoichiometry N” value in data set [2] stood at 2.

B3: NrdJb subunit of the split class II ribonucleotide reductase from Pseudomonas aeruginosa (enzyme, UniProt Q9HT77 1-229, looked up)
chain: MSAVKITQKIKGFKVVNEAEEQALAAAAEAASVVQMDETLERPDTLIGATYKIKSPLFEHALYVTINDMVLNAGTAHEQRRPFEIFINSKNMDHFQWIVALTRIMSAVFRKGGDCTFLVEELKAVFDPRGGYLKKGGIYMPSIVAEIGGVLERHLTAIGLLRGPELDEEQRLFLAEKRAAYEAAQGTSKVEPGEGFPAGAQLCGKCNSMAVVQMDGCATCLNCGHSKCG
modifications: biotin linker (0.05 biotin linker/NrdJb monomer) where NrdJb was immobilised on the streptavidin chip for SPR
notes: NrdJb, small subunit of the split class II ribonucleotide reductase (NrdJ) of Pseudomonas aeruginosa; 229 residues in PA; the gene encoding NrdJb was custom synthesised with codon optimisation for E. coli and cloned into pET21; No cleavage of the tag is described; Probably the whole 229-residue protein; also called PA NrdJb; His-tagged NrdJb; source: E. coli BL21(DE3), pET21, codon-optimised …
On to B3, for which the “stoichiometry from the enzyme activity titration (activity leveled off at approximately equimolar concentration of NrdJa and NrdJb)” value in data set [3] was found to be 1. Besides, the Kd in data set [4] was 91 ± 17 nM; in [5], 680 ± 100 nM; in [6], 690 ± 60 nM; in data set [7], 54 ± 12 nM; in data set [8] it was 300 ± 190 nM; in data set [9], 360 ± 90 nM.

The term Km denotes the substrate concentration at which the rate is half of its maximum. Broadly, the stoichiometry N is a count of units in the complex or per binding partner.
